{"source": "the RNAGym collection of RNA variant scans (doi:10.1021/acssynbio.7b00057)", "parents": {"B1": {"name": "Pistol ribozyme (parent)", "chain": "GGGUCGUUGUUCCAUAAUCGCGUGGAUAUGGCACGCAAGUUUCUACCGGGCACCGUAAAUGUCCGACUGGAGCCGUUCGGGCGGCUAUAAACAGACCUCAGGCCCGAAGCGUGGCGGCACCUGCCGCCGGUGGUAAAAAAGAUCGGAAGAGCACACGUCU"}}}
{"variants_of": "B1", "test": "aptazyme ON/OFF ratio, guanine; higher = stronger switching; co-transcriptional cleavage with and without guanine"}
{"variant": "U7A U10C U11A C13U", "aptazyme ON/OFF ratio": 1.16}
{"variant": "U7A U10C U11A C13A", "aptazyme ON/OFF ratio": 1.15}
{"variant": "U7A U10C U11A C13G", "aptazyme ON/OFF ratio": 1.09}
{"variant": "U7A U10C U11G C12G", "aptazyme ON/OFF ratio": 1.26}
{"variant": "U7A U10C U11G C12A", "aptazyme ON/OFF ratio": 1.08}
{"variant": "U7A U10C U11G C12U", "aptazyme ON/OFF ratio": 1.24}
{"variant": "U7A U10A C12G C13G", "aptazyme ON/OFF ratio": 1.25}
{"variant": "U7A U10A C12G C13A", "aptazyme ON/OFF ratio": 1.31}
{"variant": "U7A U10A C12G C13U", "aptazyme ON/OFF ratio": 1.27}
{"variant": "U7A U10A U11C C12U C13G", "aptazyme ON/OFF ratio": 1.07}
{"variant": "U7A U10A U11C C12U C13U", "aptazyme ON/OFF ratio": 1.04}
{"variant": "U7A U10A U11C C12U C13A", "aptazyme ON/OFF ratio": 1.07}
{"variant": "U7A U10A U11A C13G", "aptazyme ON/OFF ratio": 1.15}
{"variant": "U7A U10A U11A C13U", "aptazyme ON/OFF ratio": 1.16}
{"variant": "U7A U10A U11A C13A", "aptazyme ON/OFF ratio": 1.19}
{"variant": "U7A U10G U11A C12G C13A", "aptazyme ON/OFF ratio": 1.08}
{"variant": "U7A U10G U11A C12G C13G", "aptazyme ON/OFF ratio": 1.17}
{"variant": "U7A U10G U11A C12G C13U", "aptazyme ON/OFF ratio": 1.28}
{"variant": "U7A U10C C12A C13U", "aptazyme ON/OFF ratio": 1.21}
{"variant": "U7A U10C C12A C13G", "aptazyme ON/OFF ratio": 1.12}
{"variant": "U7A U10C C12A C13A", "aptazyme ON/OFF ratio": 1.35}
{"variant": "U7A U10C U11G C12U C13G", "aptazyme ON/OFF ratio": 1.31}
{"variant": "U7A U10C U11G C12U C13A", "aptazyme ON/OFF ratio": 1.27}
{"variant": "U7A U10C U11G C12U C13U", "aptazyme ON/OFF ratio": 1.2}
{"variant": "U7A U10A U11G C12U C13G", "aptazyme ON/OFF ratio": 1.45}
{"variant": "U7A U10A U11G C12U C13U", "aptazyme ON/OFF ratio": 1.35}
{"variant": "U7A U10A U11G C12U C13A", "aptazyme ON/OFF ratio": 1.11}
{"variant": "U7A U10A U11G C12A", "aptazyme ON/OFF ratio": 1.13}
{"variant": "U7A U10A U11G C12U", "aptazyme ON/OFF ratio": 1.15}
{"variant": "U7A U10A U11G C12G", "aptazyme ON/OFF ratio": 1.45}
{"variant": "U7A U10G C13G", "aptazyme ON/OFF ratio": 1.23}
{"variant": "U7A U10G C13U", "aptazyme ON/OFF ratio": 1.27}
{"variant": "U7A U10G C13A", "aptazyme ON/OFF ratio": 1.31}
{"variant": "U7A U10A C12U C13U", "aptazyme ON/OFF ratio": 1.27}
{"variant": "U7A U10A C12U C13A", "aptazyme ON/OFF ratio": 1.18}
{"variant": "U7A U10A C12U C13G", "aptazyme ON/OFF ratio": 1.14}
{"variant": "U7A U10C U11G C13A", "aptazyme ON/OFF ratio": 1.24}
{"variant": "U7A U10C U11G C13U", "aptazyme ON/OFF ratio": 1.17}
{"variant": "U7A U10C U11G C13G", "aptazyme ON/OFF ratio": 1.2}
{"variant": "U7A U10G U11A C13A", "aptazyme ON/OFF ratio": 1.11}
{"variant": "U7A U10G U11A C13G", "aptazyme ON/OFF ratio": 1.09}
{"variant": "U7A U10G U11A C13U", "aptazyme ON/OFF ratio": 1.06}
{"variant": "U7A U10A C12G", "aptazyme ON/OFF ratio": 1.22}
{"variant": "U7A U10A C12A", "aptazyme ON/OFF ratio": 1.31}
{"variant": "U7A U10A C12U", "aptazyme ON/OFF ratio": 1.1}
{"variant": "U7A U10G U11A C12U", "aptazyme ON/OFF ratio": 1.13}
{"variant": "U7A U10G U11A C12A", "aptazyme ON/OFF ratio": 1.36}
{"variant": "U7A U10G U11A C12G", "aptazyme ON/OFF ratio": 1.24}
{"variant": "U7A U8G U11G C12U", "aptazyme ON/OFF ratio": 1.29}
{"variant": "U7A U10C U11C C13G", "aptazyme ON/OFF ratio": 1.07}
{"variant": "U7A U10C U11C C13A", "aptazyme ON/OFF ratio": 1.03}
{"variant": "U7A U10C U11C C13U", "aptazyme ON/OFF ratio": 1.03}
{"variant": "U7A U10G U11A C12A C13A", "aptazyme ON/OFF ratio": 1.17}
{"variant": "U7A U10G U11A C12A C13G", "aptazyme ON/OFF ratio": 1.11}
{"variant": "U7A U10G U11A C12A C13U", "aptazyme ON/OFF ratio": 1.08}
{"variant": "U7A U10G C12A C13A", "aptazyme ON/OFF ratio": 1.16}
{"variant": "U7A U10G C12A C13U", "aptazyme ON/OFF ratio": 1.2}
{"variant": "U7A U10G C12A C13G", "aptazyme ON/OFF ratio": 1.09}
{"variant": "U7A U10G U11A", "aptazyme ON/OFF ratio": 1.06}
{"variant": "U7A U10A U11G", "aptazyme ON/OFF ratio": 1.35}
{"variant": "U7A U10A U11C", "aptazyme ON/OFF ratio": 1}
{"variant": "U7A U10A U11A", "aptazyme ON/OFF ratio": 1.21}
{"variant": "U7A U10C U11C C12G C13A", "aptazyme ON/OFF ratio": 1.04}
{"variant": "U7A U10C U11C C12G C13U", "aptazyme ON/OFF ratio": 1.06}
{"variant": "U7A U10C U11C C12G C13G", "aptazyme ON/OFF ratio": 1.09}
{"variant": "U7A U10A U11C C13G", "aptazyme ON/OFF ratio": 1.03}
{"variant": "U7A U10A U11C C13U", "aptazyme ON/OFF ratio": 1}
{"variant": "U7A U10A U11C C13A", "aptazyme ON/OFF ratio": 1.02}
{"variant": "U7A U10C C12G C13A", "aptazyme ON/OFF ratio": 1.29}
{"variant": "U7A U10C C12G C13G", "aptazyme ON/OFF ratio": 1.35}
{"variant": "U7A U10C C12G C13U", "aptazyme ON/OFF ratio": 1.28}
{"variant": "U7A U10C C12A", "aptazyme ON/OFF ratio": 1.37}
{"variant": "U7A U10C C12G", "aptazyme ON/OFF ratio": 1.42}
{"variant": "U7A U10C C12U", "aptazyme ON/OFF ratio": 3.22}
{"variant": "U7A U10A U11A C12U C13U", "aptazyme ON/OFF ratio": 1.22}
{"variant": "U7A U10A U11A C12U C13A", "aptazyme ON/OFF ratio": 1.15}
{"variant": "U7A U10A U11A C12U C13G", "aptazyme ON/OFF ratio": 1.26}
{"variant": "U7A U10C U11A C12U C13G", "aptazyme ON/OFF ratio": 1.14}
{"variant": "U7A U10C U11A C12U C13U", "aptazyme ON/OFF ratio": 1.26}
{"variant": "U7A U10C U11A C12U C13A", "aptazyme ON/OFF ratio": 1.17}
{"variant": "U7A U10C U11C C12A C13G", "aptazyme ON/OFF ratio": 1.16}
{"variant": "U7A U10C U11C C12A C13U", "aptazyme ON/OFF ratio": 1.1}
{"variant": "U7A U10C U11C C12A C13A", "aptazyme ON/OFF ratio": 1.06}
